In PMC6509287:

How the values were obtained:
[1] = target: TOPBP1 (UniProt Q92547); assay: GST pull-down from nuclear extract; details: reference: wild-type fragment; sites S196
[2] = target: TOPBP1 (UniProt Q92547); assay: HA immunoprecipitation, western blot; details: reference: wild type

“MDC1 109-330 (from UniProt Q14676) S196A” was tested, and the “binding against the reference” value [1] was “lost”.

In the case of MDC1 (from UniProt Q14676) S168A, the “binding against the reference” value ([2]; sites S168) was “lost”.

With MDC1 (from UniProt Q14676) S196A the “binding against the reference” value ([2]; sites S196) was “lost”.
